Our source for the stoichiometry N values is PMC7458321.

For the assay, the target named is GST F52(pBPa). The assay can be described thus: cross-linking; photocrosslinking through pBPa in whole N. meningitidis cells, UV light for the indicated times up to 2 hours; bacterial extracts on Western blot with anti-GST mAb. Background: In western blotting, separated proteins are transferred to a membrane and probed.

Sequence of GST F52(pBPa) (P08515 2-218): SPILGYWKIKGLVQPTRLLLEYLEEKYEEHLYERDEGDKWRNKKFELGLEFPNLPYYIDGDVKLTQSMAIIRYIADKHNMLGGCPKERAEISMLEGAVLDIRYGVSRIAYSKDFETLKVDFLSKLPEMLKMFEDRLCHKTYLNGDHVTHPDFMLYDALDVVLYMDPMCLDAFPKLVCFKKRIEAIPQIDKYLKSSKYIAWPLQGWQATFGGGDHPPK

For the substance GST F52(pBPa) (enzyme), the stoichiometry N (in general, a count of units in the complex or per binding partner) was found to be 2.
